Measurements published in the supplement of paper PMC10567573.

B1: ZBTB22 (parent)
chain: FSSSSQEAFAASAVGSGERRGGGP
B2: TPD52L2 (parent)
chain: EAEEEELRAELTKVEEEIVTLRQV

Variants of: B1
Assay: protein stability index of a GFP-peptide fusion (GPS, HEK-293T) (PSI 1-6); higher = more stable
Settings: c terminus: a fixed tail appended
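Further: lentivirally expressed fusions sorted by FACS into six bins by GFP to DsRed ratio, PSI derived from sequencing read proportions per bin multiplied by bin number.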

Variant | protein stability index
LSSSSQEAFAASAVGSGERRGGGP [F1L] | 5.29
ASSSSQEAFAASAVGSGERRGGGP [F1A] | 4.9
HSSSSQEAFAASAVGSGERRGGGP [F1H] | 4.75
KSSSSQEAFAASAVGSGERRGGGP [F1K] | 5.04
CSSSSQEAFAASAVGSGERRGGGP [F1C] | 3.94
DSSSSQEAFAASAVGSGERRGGGP [F1D] | 5.7
MSSSSQEAFAASAVGSGERRGGGP [F1M] | 5.13
RSSSSQEAFAASAVGSGERRGGGP [F1R] | 5.67
ESSSSQEAFAASAVGSGERRGGGP [F1E] | 5.43
TSSSSQEAFAASAVGSGERRGGGP [F1T] | 5.39
WSSSSQEAFAASAVGSGERRGGGP [F1W] | 5.09
YSSSSQEAFAASAVGSGERRGGGP [F1Y] | 3.48
VSSSSQEAFAASAVGSGERRGGGP [F1V] | 5.17
QSSSSQEAFAASAVGSGERRGGGP [F1Q] | 5.01
SSSSSQEAFAASAVGSGERRGGGP [F1S] | 4.85
GSSSSQEAFAASAVGSGERRGGGP [F1G] | 5.5
ISSSSQEAFAASAVGSGERRGGGP [F1I] | 5.3
NSSSSQEAFAASAVGSGERRGGGP [F1N] | 5.02
PSSSSQEAFAASAVGSGERRGGGP [F1P] | 5.33
FSCSSQEAFAASAVGSGERRGGGP [S3C] | 2.97
FSMSSQEAFAASAVGSGERRGGGP [S3M] | 4.2

Variant | protein stability index
FSYSSQEAFAASAVGSGERRGGGP [S3Y] | 3.71
FSLSSQEAFAASAVGSGERRGGGP [S3L] | 4.05
FSHSSQEAFAASAVGSGERRGGGP [S3H] | 4.13
FSPSSQEAFAASAVGSGERRGGGP [S3P] | 2.99
FSNSSQEAFAASAVGSGERRGGGP [S3N] | 3.76
FSASSQEAFAASAVGSGERRGGGP [S3A] | 3.41
FSVSSQEAFAASAVGSGERRGGGP [S3V] | 4.41
FSTSSQEAFAASAVGSGERRGGGP [S3T] | 4.04
FSKSSQEAFAASAVGSGERRGGGP [S3K] | 4.3
FSFSSQEAFAASAVGSGERRGGGP [S3F] | 3.37
FSQSSQEAFAASAVGSGERRGGGP [S3Q] | 4.07
FSDSSQEAFAASAVGSGERRGGGP [S3D] | 4.36
FSISSQEAFAASAVGSGERRGGGP [S3I] | 4.37
FSESSQEAFAASAVGSGERRGGGP [S3E] | 4.38
FSGSSQEAFAASAVGSGERRGGGP [S3G] | 2.35
FSWSSQEAFAASAVGSGERRGGGP [S3W] | 2.86
FSRSSQEAFAASAVGSGERRGGGP [S3R] | 3.54
FSSFSQEAFAASAVGSGERRGGGP [S4F] | 2.88
FSSISQEAFAASAVGSGERRGGGP [S4I] | 3.62
FSSESQEAFAASAVGSGERRGGGP [S4E] | 4.28
FSSDSQEAFAASAVGSGERRGGGP [S4D] | 3.98

Variant | protein stability index
FSSASQEAFAASAVGSGERRGGGP [S4A] | 3.14
FSSHSQEAFAASAVGSGERRGGGP [S4H] | 3.21
FSSGSQEAFAASAVGSGERRGGGP [S4G] | 1.93
FLSSSQEAFAASAVGSGERRGGGP [S2L] | 3.13
FTSSSQEAFAASAVGSGERRGGGP [S2T] | 2.53
FNSSSQEAFAASAVGSGERRGGGP [S2N] | 4.13
FCSSSQEAFAASAVGSGERRGGGP [S2C] | 2.62
FWSSSQEAFAASAVGSGERRGGGP [S2W] | 3.16
FVSSSQEAFAASAVGSGERRGGGP [S2V] | 2.29
FHSSSQEAFAASAVGSGERRGGGP [S2H] | 1.77
FFSSSQEAFAASAVGSGERRGGGP [S2F] | 4.08
FISSSQEAFAASAVGSGERRGGGP [S2I] | 2.26
FESSSQEAFAASAVGSGERRGGGP [S2E] | 5.12
FKSSSQEAFAASAVGSGERRGGGP [S2K] | 4.86
FRSSSQEAFAASAVGSGERRGGGP [S2R] | 4.52
FGSSSQEAFAASAVGSGERRGGGP [S2G] | 2.2
FYSSSQEAFAASAVGSGERRGGGP [S2Y] | 4.54
FASSSQEAFAASAVGSGERRGGGP [S2A] | 2.29
FQSSSQEAFAASAVGSGERRGGGP [S2Q] | 2.55
FMSSSQEAFAASAVGSGERRGGGP [S2M] | 4.01
FDSSSQEAFAASAVGSGERRGGGP [S2D] | 5.17

Variants of: B2
Assay: as above
Settings: c terminus: a fixed tail appended

Variant | protein stability index
EAEEEELRAELTKVEEEIVTLRLV [Q23L] | 3.25
EAEEEELRAELTKVEEEIVTLRRV [Q23R] | 3.73
EAEEEELRAELTKVEEEIVTLRYV [Q23Y] | 5.02
EAEEEELRAELTKVEEEIVTLRTV [Q23T] | 4.06
EAEEEELRAELTKVEEEIVTLRMV [Q23M] | 3.65
EAEEEELRAELTKVEEEIVTLRWV [Q23W] | 4.35
EAEEEELRAELTKVEEEIVTLRSV [Q23S] | 3.61
EAEEEELRAELTKVEEEIVTLRKV [Q23K] | 4.04
EAEEEELRAELTKVEEEIVTLRNV [Q23N] | 4.21
EAEEEELRAELTKVEEEIVTLRPV [Q23P] | 4.58
EAEEEELRAELTKVEEEIVTLRVV [Q23V] | 3.11
EAEEEELRAELTKVEEEIVTLRIV [Q23I] | 2.98
EAEEEELRAELTKVEEEIVTLRQM [V24M] | 3.42
EAEEEELRAELTKVEEEIVTLRQR [V24R] | 4.39
EAEEEELRAELTKVEEEIVTLRQL [V24L] | 3.78
EAEEEELRAELTKVEEEIVTLRQC [V24C] | 3.63

Variant | protein stability index
EAEEEELRAELTKVEEEIVTLRQS [V24S] | 4.52
EAEEEELRAELTKVEEEIVTLRQF [V24F] | 3.25
EAEEEELRAELTKVEEEIVTLRQD [V24D] | 5.2
EAEEEELRAELTKVEEEIVTLRQN [V24N] | 4.72
EAEEEELRAELTKVEEEIVTLRQI [V24I] | 4.13
EAEEEELRAELTKVEEEIVTLRQQ [V24Q] | 4.14
EAEEEELRAELTKVEEEIVTLRQG [V24G] | 3.41
EAEEEELRAELTKVEEEIVTLRQE [V24E] | 4.35
EAEEEELRAELTKVEEEIVTLRQA [V24A] | 4.41
EAEEEELRAELTKVEEEIVTLRQH [V24H] | 3.92
EAEEEELRAELTKVEEEIVTLRQK [V24K] | 4.87
EAEEEELRAELTKVEEEIVTLRQW [V24W] | 3.89
EAEEEELRAELTKVEEEIVTLRQT [V24T] | 4.39
EAEEEELRAELTKVEEEIVTLRQP [V24P] | 4.65
EAEEEELRAELTKVEEEIVTLRQY [V24Y] | 3.83
